Reference: paper PMC9482650, “Quantitative fragmentomics allow affinity mapping of interactomes” (Nature Communications, 2022)

T1: ARHGAP21, Q5T5U3
T1 sequence (Q5T5U3 45-169, limits assumed, looked up): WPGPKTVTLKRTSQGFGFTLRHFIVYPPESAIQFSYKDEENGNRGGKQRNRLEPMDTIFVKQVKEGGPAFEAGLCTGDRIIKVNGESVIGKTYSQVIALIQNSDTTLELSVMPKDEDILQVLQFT

T2: GRIP1_2, Q9Y3R0
T2 sequence (Q9Y3R0 145-248, limits assumed, looked up): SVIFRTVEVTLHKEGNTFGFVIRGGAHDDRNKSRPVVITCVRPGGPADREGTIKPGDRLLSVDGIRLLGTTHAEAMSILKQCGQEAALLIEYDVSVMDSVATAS

T3: HTRA4, P83105
T3 sequence (P83105 378-476, limits assumed, looked up): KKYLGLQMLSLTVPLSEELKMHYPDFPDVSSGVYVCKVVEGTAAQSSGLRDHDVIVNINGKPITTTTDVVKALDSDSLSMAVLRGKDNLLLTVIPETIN

T4: PARD3B_1, Q8TEW8
T4 sequence (Q8TEW8 196-299, limits assumed, looked up): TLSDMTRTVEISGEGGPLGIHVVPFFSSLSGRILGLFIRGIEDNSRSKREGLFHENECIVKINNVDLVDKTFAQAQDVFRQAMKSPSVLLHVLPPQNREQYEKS

T5: DFNB31_2, Q9P202
T5 sequence (Q9P202 274-371, limits assumed, looked up): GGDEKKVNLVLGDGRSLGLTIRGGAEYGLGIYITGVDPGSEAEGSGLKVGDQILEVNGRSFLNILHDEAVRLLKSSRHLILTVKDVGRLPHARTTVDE

T6: PDZRN3_1, Q9UPQ7
T6 sequence (Q9UPQ7 244-349, limits assumed, looked up): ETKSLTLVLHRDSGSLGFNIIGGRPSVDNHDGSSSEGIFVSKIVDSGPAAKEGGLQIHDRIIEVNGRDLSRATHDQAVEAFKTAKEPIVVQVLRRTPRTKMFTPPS

T7: TX1BP3, O14907
T7 sequence (O14907 10-122, limits assumed, looked up): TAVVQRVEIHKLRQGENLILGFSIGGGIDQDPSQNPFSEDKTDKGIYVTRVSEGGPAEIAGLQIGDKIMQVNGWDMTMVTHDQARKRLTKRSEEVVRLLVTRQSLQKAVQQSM

T8: SNTB1, Q13884
T8 sequence (Q13884 107-205, limits assumed, looked up): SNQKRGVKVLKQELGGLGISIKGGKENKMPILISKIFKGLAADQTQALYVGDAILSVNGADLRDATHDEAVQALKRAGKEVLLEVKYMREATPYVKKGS

T9: SHANK1, Q9Y566
T9 sequence (Q9Y566 658-767, limits assumed, looked up): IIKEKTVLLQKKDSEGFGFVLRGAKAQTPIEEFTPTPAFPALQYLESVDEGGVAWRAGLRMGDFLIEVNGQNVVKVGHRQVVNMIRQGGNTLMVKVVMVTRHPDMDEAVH

T10: MPP2, Q14168
T10 sequence (Q14168 180-250, limits assumed, looked up): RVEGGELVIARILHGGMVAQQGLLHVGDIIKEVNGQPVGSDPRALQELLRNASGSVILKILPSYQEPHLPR


How the values were obtained:
Experiment in all cases: holdup assay
Parameters in all cases: key: below the threshold = too weak to quantify, mostly under pKd 3.1 to 4
Settings in all cases: plain residues with an end cap or a label only (N-terminal biotin on a linker: ado-ado)
DLG2_2, Q15700 = target: DLG2_2, Q15700
Inadl_4, Q8NI35 = target: Inadl_4, Q8NI35
LAP2, Q96RT1 = target: LAP2, Q96RT1
ARHGAP21, Q5T5U3 = target: T1, ARHGAP21, Q5T5U3
GRIP1_2, Q9Y3R0 = target: T2, GRIP1_2, Q9Y3R0
HTRA4, P83105 = target: T3, HTRA4, P83105
PARD3B_1, Q8TEW8 = target: T4, PARD3B_1, Q8TEW8
GRIP2_3, Q9C0E4 = target: GRIP2_3, Q9C0E4
MAGI1_1, Q96QZ7 = target: MAGI1_1, Q96QZ7
NHERF2_2, Q15599 = target: NHERF2_2, Q15599
DFNB31_2, Q9P202 = target: T5, DFNB31_2, Q9P202
DLG5_1, Q8TDM6 = target: DLG5_1, Q8TDM6
FRMPD2_2, Q68DX3 = target: FRMPD2_2, Q68DX3
PDZRN3_1, Q9UPQ7 = target: T6, PDZRN3_1, Q9UPQ7
GOPC, Q9HD26 = target: GOPC, Q9HD26
TX1BP3, O14907 = target: T7, TX1BP3, O14907
SNTB1, Q13884 = target: T8, SNTB1, Q13884
MAGI2_5, Q86UL8 = target: MAGI2_5, Q86UL8
Inadl_3, Q8NI35 = target: Inadl_3, Q8NI35
PARD3_3, Q8TEW0 = target: PARD3_3, Q8TEW0
SHANK1, Q9Y566 = target: T9, SHANK1, Q9Y566
MAGI3_2, Q5TCQ9 = target: MAGI3_2, Q5TCQ9
GRASP, Q7Z6J2 = target: GRASP, Q7Z6J2
IL16_4, Q14005 = target: IL16_4, Q14005
HTRA2, O43464 = target: HTRA2, O43464
MPP2, Q14168 = target: T10, MPP2, Q14168

Chain of LAP2, Q96RT1 (Q96RT1 other isoform, or with tags, fused parts or gaps): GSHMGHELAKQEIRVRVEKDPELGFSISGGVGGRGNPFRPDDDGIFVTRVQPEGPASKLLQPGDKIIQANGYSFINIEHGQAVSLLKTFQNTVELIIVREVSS
Chain of GRASP, Q7Z6J2 (Q7Z6J2 96-193): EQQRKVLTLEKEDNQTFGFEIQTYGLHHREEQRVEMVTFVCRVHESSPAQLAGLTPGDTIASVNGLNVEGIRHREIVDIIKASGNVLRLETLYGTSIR
Chain of Inadl_4, Q8NI35 (Q8NI35 547-651): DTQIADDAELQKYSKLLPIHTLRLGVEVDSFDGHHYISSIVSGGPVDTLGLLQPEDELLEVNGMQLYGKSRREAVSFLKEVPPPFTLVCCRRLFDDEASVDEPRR
Chain of DLG2_2, Q15700 (Q15700 189-283): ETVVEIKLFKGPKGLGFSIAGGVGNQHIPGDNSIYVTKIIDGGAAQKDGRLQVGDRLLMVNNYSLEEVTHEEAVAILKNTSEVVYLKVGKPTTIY
Chain of GRIP2_3, Q9C0E4 (Q9C0E4 238-339): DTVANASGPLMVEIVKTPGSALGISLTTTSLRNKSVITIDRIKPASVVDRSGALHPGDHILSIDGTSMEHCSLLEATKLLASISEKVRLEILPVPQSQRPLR
Chain of MAGI2_5, Q86UL8 (Q86UL8 915-1017): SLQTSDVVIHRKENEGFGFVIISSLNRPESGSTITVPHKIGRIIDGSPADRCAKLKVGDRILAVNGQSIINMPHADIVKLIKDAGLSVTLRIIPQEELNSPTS
Chain of NHERF2_2, Q15599 (Q15599 142-238): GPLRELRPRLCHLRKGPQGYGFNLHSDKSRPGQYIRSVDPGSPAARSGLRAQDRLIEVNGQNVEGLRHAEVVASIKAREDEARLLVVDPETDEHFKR
Chain of MAGI3_2, Q5TCQ9 (Q5TCQ9 398-503): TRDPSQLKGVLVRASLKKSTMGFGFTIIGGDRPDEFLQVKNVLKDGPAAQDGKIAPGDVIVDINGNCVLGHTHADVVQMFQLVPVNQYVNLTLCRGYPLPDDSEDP
Chain of FRMPD2_2, Q68DX3 (Q68DX3 944-1038): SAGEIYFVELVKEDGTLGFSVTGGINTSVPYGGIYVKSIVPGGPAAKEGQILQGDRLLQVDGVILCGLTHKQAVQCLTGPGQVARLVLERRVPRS
Chain of HTRA2, O43464 (O43464 355-458): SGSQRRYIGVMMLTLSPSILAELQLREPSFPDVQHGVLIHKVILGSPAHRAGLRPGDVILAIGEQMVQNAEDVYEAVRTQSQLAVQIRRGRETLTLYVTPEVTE
Chain of DLG5_1, Q8TDM6 (Q8TDM6 617-713): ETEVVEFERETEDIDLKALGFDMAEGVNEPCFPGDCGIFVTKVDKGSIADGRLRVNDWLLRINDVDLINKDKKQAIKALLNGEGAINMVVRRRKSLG
Chain of PARD3_3, Q8TEW0 (Q8TEW0 582-685): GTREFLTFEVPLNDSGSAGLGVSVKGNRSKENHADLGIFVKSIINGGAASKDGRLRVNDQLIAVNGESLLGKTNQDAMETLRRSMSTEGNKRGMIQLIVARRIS
Chain of IL16_4, Q14005 (Q14005 1229-1329): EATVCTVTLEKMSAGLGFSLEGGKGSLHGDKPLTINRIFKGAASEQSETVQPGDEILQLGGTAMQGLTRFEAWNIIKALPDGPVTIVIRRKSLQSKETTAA
Chain of MAGI1_1, Q96QZ7 (Q96QZ7 1-106): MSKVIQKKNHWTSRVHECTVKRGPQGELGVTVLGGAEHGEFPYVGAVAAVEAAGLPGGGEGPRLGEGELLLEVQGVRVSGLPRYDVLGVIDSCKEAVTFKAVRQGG
Chain of Inadl_3, Q8NI35 (Q8NI35 359-469): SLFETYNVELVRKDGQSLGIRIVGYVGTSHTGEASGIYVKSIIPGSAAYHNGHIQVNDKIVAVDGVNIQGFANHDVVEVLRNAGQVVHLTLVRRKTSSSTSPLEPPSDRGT

Binder	pKd (DLG2_2, Q15700)	pKd (Inadl_4, Q8NI35)	pKd (LAP2, Q96RT1)	pKd (ARHGAP21, Q5T5U3)	pKd (GRIP1_2, Q9Y3R0)	pKd (HTRA4, P83105)	pKd (PARD3B_1, Q8TEW8)	pKd (GRIP2_3, Q9C0E4)	pKd (MAGI1_1, Q96QZ7)	pKd (NHERF2_2, Q15599)	pKd (DFNB31_2, Q9P202)	pKd (DLG5_1, Q8TDM6)	pKd (FRMPD2_2, Q68DX3)	pKd (PDZRN3_1, Q9UPQ7)	pKd (GOPC, Q9HD26)	pKd (TX1BP3, O14907)	pKd (SNTB1, Q13884)	pKd (MAGI2_5, Q86UL8)	pKd (Inadl_3, Q8NI35)	pKd (PARD3_3, Q8TEW0)	also measured
SFISKKEWYV [NECTIN1, Q15223]	below the threshold	below the threshold	below the threshold	4.04	below the threshold	below the threshold	4.73	below the threshold	below the threshold	below the threshold	below the threshold	below the threshold	3.87	below the threshold	below the threshold	below the threshold	below the threshold	below the threshold	4.83	4.53	pKd (SHANK1, Q9Y566): below the threshold; pKd (MAGI3_2, Q5TCQ9): 5.55; pKd (GRASP, Q7Z6J2): below the threshold; pKd (IL16_4, Q14005): below the threshold; pKd (HTRA2, O43464): 4.2; pKd (MPP2, Q14168): 4.46
AEASVACSLC [PTGIR, P43119]	below the threshold	below the threshold	below the threshold	below the threshold	below the threshold	below the threshold	below the threshold	below the threshold	below the threshold	below the threshold	below the threshold	below the threshold	below the threshold	below the threshold	below the threshold	below the threshold	below the threshold	4.98	below the threshold	below the threshold	pKd (SHANK1, Q9Y566): 3.65; pKd (MAGI3_2, Q5TCQ9): below the threshold; pKd (GRASP, Q7Z6J2): 4.43; pKd (IL16_4, Q14005): below the threshold; pKd (HTRA2, O43464): 3.78; pKd (MPP2, Q14168): below the threshold

More lines, main results first:

pKd (DLG2_2, Q15700)	pKd (Inadl_4, Q8NI35)	pKd (LAP2, Q96RT1)	pKd (ARHGAP21, Q5T5U3)	pKd (GRIP1_2, Q9Y3R0)	pKd (HTRA4, P83105)	pKd (PARD3B_1, Q8TEW8)	pKd (GRIP2_3, Q9C0E4)	pKd (MAGI1_1, Q96QZ7)	pKd (NHERF2_2, Q15599)	pKd (DFNB31_2, Q9P202)	pKd (DLG5_1, Q8TDM6)	pKd (FRMPD2_2, Q68DX3)	pKd (PDZRN3_1, Q9UPQ7)	pKd (GOPC, Q9HD26)	pKd (TX1BP3, O14907)	pKd (SNTB1, Q13884)	pKd (MAGI2_5, Q86UL8)	pKd (Inadl_3, Q8NI35)	pKd (PARD3_3, Q8TEW0)	Binder	also measured
below the threshold	below the threshold	below the threshold	3.93	below the threshold	3.91	4.62	below the threshold	below the threshold	3.68	below the threshold	below the threshold	below the threshold	3.48	4.26	below the threshold	3.56	below the threshold	below the threshold	below the threshold	PSVGSKKTVL [REELD1, A0A1B0GV85]	pKd (SHANK1, Q9Y566): 3.93; pKd (MAGI3_2, Q5TCQ9): 3.51; pKd (GRASP, Q7Z6J2): 4.43; pKd (IL16_4, Q14005): 3.6; pKd (HTRA2, O43464): below the threshold; pKd (MPP2, Q14168): below the threshold
below the threshold	below the threshold	below the threshold	below the threshold	below the threshold	below the threshold	below the threshold	below the threshold	below the threshold	below the threshold	below the threshold	below the threshold	below the threshold	below the threshold	below the threshold	4.04	below the threshold	3.6	below the threshold	below the threshold	DRIQSCLSDA [SBF1, O95248]	pKd (SHANK1, Q9Y566): below the threshold; pKd (MAGI3_2, Q5TCQ9): below the threshold; pKd (GRASP, Q7Z6J2): below the threshold; pKd (IL16_4, Q14005): below the threshold; pKd (HTRA2, O43464): below the threshold; pKd (MPP2, Q14168): below the threshold
below the threshold	below the threshold	below the threshold	3.91	below the threshold	below the threshold	3.84	below the threshold	below the threshold	4.67	below the threshold	below the threshold	below the threshold	below the threshold	3.94	below the threshold	below the threshold	3.75	below the threshold	below the threshold	LKDDELKTKL [SLCO1A2, P46721]	pKd (SHANK1, Q9Y566): 5.62; pKd (MAGI3_2, Q5TCQ9): below the threshold; pKd (GRASP, Q7Z6J2): 4.37; pKd (IL16_4, Q14005): 3.61; pKd (HTRA2, O43464): below the threshold; pKd (MPP2, Q14168): below the threshold
